Reference: US20100015650

Target: T1, BRB1 tyrosine kinase substrate peptide
T1 chain: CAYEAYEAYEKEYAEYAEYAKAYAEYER

B1: ROR1 (protein)
chain: CRNNQKSSSAPVQRQPKHVRGQNVEMSMLNAYKPKSKAKELPLSAVRFMEELGECAFGKIYKGHLYLPGMDHAQLVAIKTLKDYNNPQQWTEFQQEASLMAELHHPNIVCLLGAVTQEQPVCMLFEYINQGDLHEFLIMRSPHSDVGCSSDEDGTVKSSLDHGDFLHIAIQIAAGMEYLSSHFFVHKDLAARNILIGEQLHVKISDLGLSREIYSADYYRVQSKSLLPIRWMPPEAIMYGKFSSDSDIWSFGVVLWEIFSFGLQPYYGFSNQEVIEMVRKRQLLPCSEDCPPRMYSLMTECWNEIPSRRPRFKDIHVRLRSWEGLSSHTSSTTPSGGNATTQTTSLSASPVSNLSNPRYPNYMFPSQGITPQGQIAGFIGPPIPQNQRFIPINGYPIPPGYAAFPAAHYQPTGPPRVIQHCPPPKSRSPSSASGSTSTGHVTSLPSSGSNQEANIPLLPHMSIPNHPGGMGITVFGNKSQKPYKIDSKQASLLGDANIHGHTESMISAEL
Question: How did the Signal to Noise Ratio with BRB1 Peptide (TR-FRET kinase assay; kinase 20 nM) turn out when B1 was run?
Answer: Its Signal to Noise Ratio with BRB1 Peptide (TR-FRET kinase assay; kinase 20 nM) is 1.1.

B2: RON (protein)
chain: SYWWRRKQLVLPPNLNDLASLDQTAGATPLPILYSGSDYRSGLALPAIDGLDSTTCVHGASFSDSEDESCVPLLRKESIQLRDLDSALLAEVKDVLIPHERVVTHSDRVIGKGHFGVVYHGEYIDQAQNRIQCAIKSLSRITEMQQVEAFLREGLLMRGLNHPNVLALIGIMLPPEGLPHVLLPYMCHGDLLQFIRSPQRNPTVKDLISFGLQVARGMEYLAEQKFVHRDLAARNCMLDESFTVKVADFGLARDILDREYYSVQQHRHARLPVKWMALESLQTYRFTTKSDVWSFGVLLWELLTRGAPPYRHIDPFDLTHFLAQGRRLPQPEYCPDSLYQVMQQCWEADPAVRPTFRVLVGEVEQIVSALLGDHYVQLPATYMNLGPSTSHEMNVRPEQPQFSPMPGNVRRPRPLSEPPRPT
Question: For B2, which Signal to Noise ratio with BRB1 Peptide (TR-FRET kinase assay; kinase 0.25 nM) is on record?
Answer: The Signal to Noise ratio with BRB1 Peptide (TR-FRET kinase assay; kinase 0.25 nM) was 3.5.

B3: MUSK (protein)
chain: CCRRRKQWKNKKRESAAVTLTTLPSELLLDRLHPNPMYQRMPLLLNPKLLSLEYPRNNIEYVRDIGEGAFGRVFQARAPGLLPYEPFTMVAVKMLKEEASADMQADFQREAALMAEFDNPNIVKLLGVCAVGKPMCLLFEYMAYGDLNEFLRSMSPHTVCSLSHSDLSMRAQVSSPGPPPLSCAEQLCIARQVAAGMAYLSERKFVHRDLATRNCLVGENMVVKIADFGLSRNIYSADYYKANENDAIPIRWMPPESIFYNRYTTESDVWAYGVVLWEIFSYGLQPYYGMAHEEVIYYVRDGNILSCPENCPVELYNLMRLCWSKLPADRPSFTSIHRILERMCERAEGTVSV
Question: With B3 as the protein, how does the Signal to Noise Ratio with BRB1 Peptide (TR-FRET kinase assay; kinase 1 nM) read?
Answer: Its Signal to Noise Ratio with BRB1 Peptide (TR-FRET kinase assay; kinase 1 nM) is 3.1.

B4: MER (protein)
chain: KRVQETKFGNAFTEEDSELVVNYIAKKSFCRRAIELTLHSLGVSEELQNKLEDVVIDRNLLILGKILGEGEFGSVMEGNLKQEDGTSLKVAVKTMKLDNSSQREIEEFLSEAACMKDFSHPNVIRLLGVCIEMSSQGIPKPMVILPFMKYGDLHTYLLYSRLETGPKHIPLQTLLKFMVDIALGMEYLSNRNFLHRDLAARNCMLRDDMTVCVADFGLSKKIYSGDYYRQGRIAKMPVKWIAIESLADRVYTSKSDVWAFGVTMWEIATRGMTPYPGVQNHEMYDYLLHGHRLKQPEDCLDELYEIMYSCWRTDPLDRPTFSVLRLQLEKLLESLPDVRNQADVIYVNTQLLESSEGLAQGSTLAPLDLNIDPDSIIASCTPRAAISVVTAEVHDSKPHEGRYILNGGSEEWEDLTSAPSAAVTAEKNSVLPGERLVRNGVSWSHSSMLPLGSSLPDELLFADDSSEGSEVLM
Question: How did the Signal to Noise ratio with BRB1 Peptide (TR-FRET kinase assay; kinase 0.25 nM) turn out when B4 was run?
Answer: Its Signal to Noise ratio with BRB1 Peptide (TR-FRET kinase assay; kinase 0.25 nM) is 12.9.

B5: LTK (protein)
chain: KQKKWQGLQEMRLPSPELELSKLRTSAIRTAPNPYYCQVGLGPAQSWPLPPGVTEVSPANVTLLRALGHGAFGEVYEGLVIGLPGDSSPLQVAIKTLPELCSPQDELDFLMEALIISKFRHQNIVRCVGLSLRATPRLILLELMSGGDMKSFLRHSRPHLGQPSPLVMRDLLQLAQDIAQGCHYLEENHFIHRDIAARNCLLSCAGPSRVAKIGDFGMARDIYRASYYRRGDRALLPVKWMPPEAFLEGIFTSKTDSWSFGVLLWEIFSLGYMPYPGRTNQEVLDFVVGGGRMDPPRGCPGPVYRIMTQCWQHEPELRPSFASILERLQYCTQDPDVLNSLLPMELGPTPEEEGTSGLGNRSLECLRPPQPQELSPEKLKSWGGSPLGPWLSSGLKPLKSRGLQPQNLWNPTYRS
Question: With B5 as the protein, how does the Signal to Noise Ratio with BRB1 Peptide (TR-FRET kinase assay; kinase 1 nM) read?
Answer: Its Signal to Noise Ratio with BRB1 Peptide (TR-FRET kinase assay; kinase 1 nM) is 13.7.

B6: PDGFRβ (protein)
chain: QKKPRYEIRWKVIESVSSDGHEYIYVDPMQLPYDSTWELPRDQLVLGRTLGSGAFGQVVEATAHGLSHSQATMKVAVKMLKSTARSSEKQALMSELKIMSHLGPHLNVVNLLGACTKGGPIYIITEYCRYGDLVDYLHRNKHTFLQHHSDKRRPPSAELYSNALPVGLPLPSHVSLTGESDGGYMDMSKDESVDYVPMLDMKGDVKYADIESSNYMAPYDNYVPSAPERTCRATLINESPVLSYMDLVGFSYQVANGMEFLASKNCVHRDLAARNVLICEGKLVKICDFGLARDIMRDSNYISKGSTFLPLKWMAPESIFNSLYTTLSDVWSFGILLWEIFTLGGTPYPELPMNEQFYNAIKRGYRMAQPAHASDEIYEIMQKCWEEKFEIRPPFSQLVLLLERLLGEGYKKKYQQVDEEFLRSDHPAILRSQARLPGFHGLRSPLDTSSVLYTAVQPNEGDNDYIIPLPDPKPEVADEGPLEGSPSLASSTLNEVNTSSTISCDSPLEPQDEPEPEPQLELQVEPEPELEQLPDSGCPAPRAEAEDSFL
Question: How did the Signal to Noise ratio with BRB1 Peptide (TR-FRET kinase assay; kinase 0.25 nM) turn out when B6 was run?
Answer: The Signal to Noise ratio with BRB1 Peptide (TR-FRET kinase assay; kinase 0.25 nM) was 4.7.

B7: RET (protein)
chain: HCYHKFAHKPPISSAEMTFRRPAQAFPVSYSSSGARRPSLDSMENQVSVDAFKILEDPKWEFPRKNLVLGKTLGEGEFGKVVKATAFHLKGRAGYTTVAVKMLKENASPSELRDLLSEFNVLKQVNHPHVIKLYGACSQDGPLLLIVEYAKYGSLRGFLRESRKVGPGYLGSGGSRNSSSLDHPDERALTMGDLISFAWQISQGMQYLAEMKLVHRDLAARNILVAEGRKMKISDFGLSRDVYEEDSYVKRSQGRIPVKWMAIESLFDHIYTTQSDVWSFGVLLWEIVTLGGNPYPGIPPERLFNLLKTGHRMERPDNCSEEMYRLMLQCWKQEPDKRPVFADISKDLEKMMVKRRDYLDLAASTPSDSLIYDDGLSEEETPLVDCNNAPLPRALPSTWIENKLYGMSDPNWPGESPVPLTRADGTNTGFPRYPNDSVYANWMLSPSAAKLMDTFDS
Question: How did the Signal to Noise ratio with BRB1 Peptide (TR-FRET kinase assay; kinase 0.5 nM) turn out when B7 was run?
Answer: The Signal to Noise ratio with BRB1 Peptide (TR-FRET kinase assay; kinase 0.5 nM) was 20.3.

B8: MET (protein)
chain: KKRKQIKDLGSELVRYDARVHTPHLDRLVSARSVSPTTEMVSNESVDYRATFPEDQFPNSSQNGSCRQVQYPLTDMSPILTSGDSDISSPLLQNTVHIDLSALNPELVQAVQHVVIGPSSLIVHFNEVIGRGHFGCVYHGTLLDNDGKKIHCAVKSLNRITDIGEVSQFLTEGIIMKDFSHPNVLSLLGICLRSEGSPLVVLPYMKHGDLRNFIRNETHNPTVKDLIGFGLQVAKGMKYLASKKFVHRDLAARNCMLDEKFTVKVADFGLARDMYDKEYYSVHNKTGAKLPVKWMALESLQTQKFTTKSDVWSFGVLLWELMTRGAPPYPDVNTFDITVYLLQGRRLLQPEYCPDPLYEVMLKCWHPKAEMRPSFSELVSRISAIFSTFIGEHYVHVNATYVNVKCVAPYPSLLSSEDNADDEVDTRPASFWETS
Question: B8 was tested. Which Signal to Noise ratio with BRB1 Peptide (TR-FRET kinase assay; kinase 0.5 nM) did it give?
Answer: The Signal to Noise ratio with BRB1 Peptide (TR-FRET kinase assay; kinase 0.5 nM) was 24.2.

B9: PDGFRa (protein)
chain: KQKPRYEIRWRVIESISPDGHEYIYVDPMQLPYDSRWEFPRDGLVLGRVLGSGAFGKVVEGTAYGLSRSQPVMKVAVKMLKPTARSSEKQALMSELKIMTHLGPHLNIVNLLGACTKSGPIYIITEYCFYGDLVNYLHKNRDSFLSHHPEKPKKELDIFGLNPADESTRSYVILSFENNGDYMDMKQADTTQYVPMLERKEVSKYSDIQRSLYDRPASYKKKSMLDSEVKNLLSDDNSEGLTLLDLLSFTYQVARGMEFLASKNCVHRDLAARNVLLAQGKIVKICDFGLARDIMHDSNYVSKGSTFLPVKWMAPESIFDNLYTTLSDVWSYGILLWEIFSLGGTPYPGMMVDSTFYNKIKSGYRMAKPDHATSEVYEIMVKCWNSEPEKRPSFYHLSEIVENLLPGQYKKSYEKIHLDFLKSDHPAVARMRVDSDNAYIGVTYKNEEDKLKDWEGGLDEQRLSADSGYIIPLPDIDPVPEEEDLGKRNRHSSQTSEESAIETGSSSSTFIKREDETIEDIDMMDDIGIDSSDLVEDSFL
Question: With B9 as the protein, how does the Signal to Noise ratio with BRB1 Peptide (TR-FRET kinase assay; kinase 0.5 nM) read?
Answer: The Signal to Noise ratio with BRB1 Peptide (TR-FRET kinase assay; kinase 0.5 nM) was 8.

B10: ROR2 (protein)
chain: VCMCRNKQKASASTPQRRQLMASPSQDMEMPLINQHKQAKLKEISLSAVRFMEELGEDRFGKVYKGHLFGPAPGEQTQAVAIKTLKDKAEGPLREEFRHEAMLRARLQHPNVVCLLGVVTKDQPLSMIFSYCSHGDLHEFLVMRSPHSDVGSTDDDRTVKSALEPPDFVHLVAQIAAGMEYLSSHHVVHKDLATRNVLVYDKLNVKISDLGLFREVYAADYYKLLGNSLLPIRWMAPEAIMYGKFSIDSDIWSYGVVLWEVFSYGLQPYCGYSNQDVVEMIRNRQVLPCPDDCPAWVYALMIECWNEFPSRRPRFKDIHSRLRAWGNLSNYNSSAQTSGASNTTQTSSLSTSPVSNVSNARYVGPKQKAPPFPQPQFIPMKGQIRPMVPPPQLYVPVNGYQPVPAYGAYLPNFYPVQIPMQMAPQQVPPQMVPKPSSHHSGSGSTSTGYVTTAPSNTSMADRAALLSEGADDTQNAPEDGAQSTVQEAEEEEEGSVPETELLGDCDTLQVDEAQVQLEA
Question: B10 was tested. Which Signal to Noise Ratio with BRB1 Peptide (TR-FRET kinase assay; kinase 20 nM) did it give?
Answer: The Signal to Noise Ratio with BRB1 Peptide (TR-FRET kinase assay; kinase 20 nM) was 1.

B11: BMX (protein)
chain: MDTKSILEELLLKRSQQKKKMSPNNYKERLFVLTKTNLSYYEYDKMKRGSRKGSIEIKKIRCVEKVNLEEQTPVERQYPFQIVYKDGLLYVYASNEESRSQWLKALQKEIRGNPHLLVKYHSGFFVDGKFLCCQQSCKAAPGCTLWEAYANLHTAVNEEKHRVPTFPDRVLKIPRAVPVLKMDAPSSSTTLAQYDNESKKNYGSQPPSSSTSLAQYDSNSKKIYGSQPNFNMQYIPREDFPDWWQVRKLKSSSSSEDVASSNQKERNVNHTTSKISWEFPESSSSEEEENLDDYDWFAGNISRSQSEQLLRQKGKEGAFMVRNSSQVGMYTVSLFSKAVNDKKGTVKHYHVHTNAENKLYLAENYCFDSIPKLIHYHQHNSAGMITRLRHPVSTKANKVPDSVSLGNGIWELKREEITLLKELGSGQFGVVQLGKWKGQYDVAVKMIKEGSMSEDEFFQEAQTMMKLSHPKLVKFYGVCSKEYPIYIVTEYISNGCLLNYLRSHGKGLEPSQLLEMCYDVCEGMAFLESHQFIHRDLAARNCLVDRDLCVKVSDFGMTRYVLDDQYVSSVGTKFPVKWSAPEVFHYFKYSSKSDVWAFGILMWEVFSLGKQPYDLYDNSQVVLKVSQGHRLYRPHLASDTIYQIMYSCWHELPEKRPTFQQLLSSIEPLREKDKH
Question: Which Signal to Noise ratio with BRB1 Peptide (TR-FRET kinase assay; kinase 0.5 nM) does the source give for B11 here?
Answer: The Signal to Noise ratio with BRB1 Peptide (TR-FRET kinase assay; kinase 0.5 nM) was 7.1.
